From the supplement of paper PMC10567573 come the findings set out here.

± gives the standard deviation.

The data set in a line: protein stability index of a GFP-peptide fusion (GPS, HEK-293T) (PSI 1-6); higher = more stable. Particulars: c terminus: a fixed tail appended.
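Note: 24-mer peptide tiles fused after GFP, lentivirally expressed, FACS-sorted into six equal bins by GFP/DsRed ratio, decoded by Illumina sequencing, PSI is the read-weighted mean bin number.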

Take NQQIHEQEKKILELEKLAEKNIIL [MTUS2]: the protein stability index was 4.13 ± 0.18 (treatment: DMSO) and 4.25 ± 0.17 (treatment: MLN4924 1 uM, 8 h).

On to RSPDASPSRAPPSTQEPQSPREGE [GNAS], for which the protein stability index (treatment: DMSO) turned out to be 5.36 ± 0.12 and the protein stability index (treatment: MLN4924 1 uM, 8 h) worked out at 5.42 ± 0.078.

Turning to AARLLRALSSFREESRFCDAHLVL [GAN], the protein stability index stood at 2.41 ± 0.65 (treatment: DMSO) and 2.02 ± 0.27 (treatment: MLN4924 1 uM, 8 h).

With DGLRLLGARARGVAMLGVFLVSAV [SOAT2], the protein stability index was 2.56 ± 0.53 (treatment: DMSO) and 2.49 ± 0.38 (treatment: MLN4924 1 uM, 8 h).

In the case of PSRVHASEVESAVWYVKKFGRYLE [FBXO39], the protein stability index was 2.42 ± 0.16 (treatment: DMSO) and 2.27 ± 0.5 (treatment: MLN4924 1 uM, 8 h).

As for LLKTLYNSIKNEKLEWAIDEDELR [PSD2], the protein stability index (treatment: DMSO) was 2.61 ± 0.43 and the protein stability index (treatment: MLN4924 1 uM, 8 h) stood at 2.07 ± 0.32.

PGFSTLSLADQMSLLQSAWMEILI [ESRRG]: the protein stability index worked out at 2.27 ± 0.88 (treatment: DMSO) and 2.29 ± 0.4 (treatment: MLN4924 1 uM, 8 h).

Consider SAENSVAKKEDKVPVKKQKTRTVF [NANOGP8], for which the protein stability index reads like this: (treatment: DMSO) 4.21 ± 0.33; (treatment: MLN4924 1 uM, 8 h) 4.29 ± 0.34.

Turning to NSSQSSSDGSCKTAGEMVFVYENA [BTBD10], the protein stability index worked out at 4.22 ± 0.3 (treatment: DMSO) and 4.15 ± 0.22 (treatment: MLN4924 1 uM, 8 h).

On to TLVSRAHQLVMEGYNWCHDRNVVT [PPP2CA], for which the protein stability index is, setting by setting: (treatment: DMSO) 2.27 ± 0.23; (treatment: MLN4924 1 uM, 8 h) 2.21 ± 0.13.

On to SGLIQTVFISSYMVLAPVFGYLGD [SPNS1], for which the protein stability index was found to be 3.5 ± 0.3 (treatment: DMSO) and 3.16 ± 0.22 (treatment: MLN4924 1 uM, 8 h).

As to PVLSGAELEKAHLALIDYLTQKRS [VPS39], the protein stability index is, setting by setting: (treatment: DMSO) 3.37 ± 0.26; (treatment: MLN4924 1 uM, 8 h) 3.38 ± 0.27.

For YPQDLPRPLRSREFPQFEPQRYPA [TRAF3IP2], the protein stability index reads like this: (treatment: DMSO) 3.93 ± 0.3; (treatment: MLN4924 1 uM, 8 h) 3.6 ± 0.41.

For the sequence KAFYKRYRLTEHERAHKGEKPYGC [ZNF649], the protein stability index is 3.62 ± 0.93 (treatment: DMSO) and 3.16 ± 0.57 (treatment: MLN4924 1 uM, 8 h).

EASAEGPRAVFVLLEERRPADSAQ [TFE3]: the protein stability index reads like this: (treatment: DMSO) 3.93 ± 0.28; (treatment: MLN4924 1 uM, 8 h) 3.95 ± 0.44.

GDPEEIRMLIHKTEDVNTLDSEKR [ANKRD44] came in with a protein stability index (treatment: DMSO) of 5.51 ± 0.16 and a protein stability index (treatment: MLN4924 1 uM, 8 h) of 5.33 ± 0.33.

Consider QVLYEWEQGFSQSFTQEQVADIDG [CTNNB1], for which the protein stability index runs as follows: (treatment: DMSO) 4.24 ± 0.3; (treatment: MLN4924 1 uM, 8 h) 4.09 ± 0.46.

Turning to MDERLSLLRSPPPPSARHRAHPPQ [KCNA3], the protein stability index is 4.55 ± 0.23 (treatment: DMSO) and 4.44 ± 0.19 (treatment: MLN4924 1 uM, 8 h).

As to HFDVLPTEFTLGDDKHYGGFTNKQ [PTPRD], the protein stability index reads like this: (treatment: DMSO) 4.48 ± 0.16; (treatment: MLN4924 1 uM, 8 h) 4.47 ± 0.25.

For the sequence MNEVKESLRSIEQKYKLFQQQQLT [SPACA9], the protein stability index was found to be 3.33 ± 0.13 (treatment: DMSO) and 3.2 ± 0.22 (treatment: MLN4924 1 uM, 8 h).

Turning to LQKLSALLMTADILAETGIRKTVK [ELOA2], the protein stability index reads like this: (treatment: DMSO) 2.48 ± 0.64; (treatment: MLN4924 1 uM, 8 h) 2.34 ± 0.45.

With FTPPTSLTRAGMSYYNSPGLHVQH [CCDC6], the protein stability index is, setting by setting: (treatment: DMSO) 2.49 ± 0.52; (treatment: MLN4924 1 uM, 8 h) 2.84 ± 0.34.

Take PESQFPEFSTSLFSGSLEPVACGS [SRPK2]: the protein stability index is, setting by setting: (treatment: DMSO) 4.21 ± 0.26; (treatment: MLN4924 1 uM, 8 h) 4.29 ± 0.064.

Consider NFSTFIKCIFTQFRIILGDFDYNA [PKD2L1], for which the protein stability index turned out to be 2.98 ± 0.36 (treatment: DMSO) and 2.94 ± 0.41 (treatment: MLN4924 1 uM, 8 h).

As for YVHHQALLDVKNIAHQNKFGEDMP [HDAC6], the protein stability index reads like this: (treatment: DMSO) 2.83 ± 0.54; (treatment: MLN4924 1 uM, 8 h) 3.49 ± 0.57.

In the case of FDSSRQRAEGTDIPTVKPLKPRPE [ZC2HC1A], the protein stability index reads like this: (treatment: DMSO) 5.02 ± 0.099; (treatment: MLN4924 1 uM, 8 h) 5.09 ± 0.14.

In turn, QSCLLVIFATKPHVLPAVLAEVAP [PYCR3] gave a protein stability index (treatment: DMSO) of 3.09 ± 0.75 and a protein stability index (treatment: MLN4924 1 uM, 8 h) of 3.32 ± 0.74.

Take HLLSWFSPTIIFDNWIPLLWCANI [DHCR7]: the protein stability index (treatment: DMSO) came out at 2.98 ± 0.18 and the protein stability index (treatment: MLN4924 1 uM, 8 h) is 3.08 ± 0.21.

In turn, IKRTIRVLDVNNQSFREQEEPSNK [NET1] returned a protein stability index (treatment: DMSO) of 3.68 ± 0.42 and a protein stability index (treatment: MLN4924 1 uM, 8 h) of 3.93 ± 0.26.

DPKKLLTQHFVQENYLEYRQVPGS [MAGEA3]: the protein stability index came out at 3.62 ± 0.22 (treatment: DMSO) and 3.76 ± 0.13 (treatment: MLN4924 1 uM, 8 h).

Regarding PTPQVDELDILPIHPPSGNSDLDP [BTBD10], the protein stability index is, setting by setting: (treatment: DMSO) 5.54 ± 0.097; (treatment: MLN4924 1 uM, 8 h) 5.39 ± 0.35.

Take FMYSGVENKQVVIIHHMRLQAKAL [INTS4]: the protein stability index stood at 2.48 ± 0.33 (treatment: DMSO) and 2.52 ± 0.63 (treatment: MLN4924 1 uM, 8 h).

Take NFDHFEILRAIGKGSFGKVCIVQK [STK32A]: the protein stability index reads like this: (treatment: DMSO) 2.87 ± 0.27; (treatment: MLN4924 1 uM, 8 h) 3.02 ± 0.24.

On to GLQNCVYPWDENHCKEKRKTSLLD [NETO1], for which the protein stability index was found to be 3.24 ± 0.25 (treatment: DMSO) and 3.52 ± 0.28 (treatment: MLN4924 1 uM, 8 h).

In the case of RRMAAEATEWQKAGAPPPSGSAVS [SRPK2], the protein stability index runs as follows: (treatment: DMSO) 4.59 ± 0.42; (treatment: MLN4924 1 uM, 8 h) 4.68 ± 0.29.

HLTRHQRTHTGEKPYKCTLCGENF [ZNF263] yielded a protein stability index (treatment: DMSO) of 3.36 ± 0.53 and a protein stability index (treatment: MLN4924 1 uM, 8 h) of 3.45 ± 0.51.
